B1: AsHPPDm-F415W-02: nucleotide sequence encoding Avena sativa HPPD with F415W; vector DBN11791 (nucleic acid)
DNA: ATGCCACCTACTCCAGCTACAGCTACTGGTGCTGCTGCTGCTGCCGTTACTCCTGAGCACGCTGCCAGGTCATTCCCCAGGGTGGTTCGCGTGAACCCCAGATCTGATAGGTTCCCAGTTCTGAGCTTCCACCATGTTGAGCTGTGGTGCGCTGATGCTGCTTCTGCTGCTGGCAGGTTCTCTTTCGCTCTTGGTGCTCCACTCGCTGCTAGATCTGATCTGTCTACAGGAAATAGCGCTCATGCCTCACTCCTGCTTCGCTCAGGTGCTTTGGCCTTCCTCTTCACCGCTCCATATGCTCCCCCACCTCAGGAGGCTGCTACTGCTGCTGCTACAGCCTCCATTCCAAGCTTCTCAGCTGATGCCGCTAGAACCTTCGCTGCTGCTCATGGACTTGCCGTGAGGTCTGTTGGTGTTCGCGTGGCTGATGCTGCTGAGGCTTTCAGAGTTTCCGTTGCCGGCGGAGCTAGGCCAGCTTTCGCTCCTGCTGATTTGGGACATGGTTTCGGCCTGGCTGAGGTTGAGCTTTACGGTGACGTGGTTCTCCGCTTCGTGTCTTACCCAGATGAGACTGACCTGCCTTTCCTTCCCGGCTTCGAGAGAGTTTCCTCTCCTGGTGCCGTGGATTACGGCCTGACAAGGTTCGACCACGTGGTTGGAAACGTTCCCGAGATGGCTCCAGTGATCGATTACATGAAGGGCTTCCTTGGATTCCATGAGTTCGCCGAGTTCACTGCTGAGGACGTGGGAACCACTGAGTCCGGTTTGAACTCTGTGGTTCTCGCCAACAATTCTGAGGCTGTTTTGCTCCCTCTGAATGAGCCTGTGCATGGAACCAAGAGGAGAAGCCAGATTCAAACTTACCTGGAGTACCACGGTGGCCCTGGAGTTCAGCATATCGCCCTTGCTTCTAATGATGTGTTGCGCACACTCAGAGAGATGCGCGCCAGAACCCCCATGGGAGGTTTCGAGTTCATGGCCCCACCACAGGCTAAGTACTACGAGGGCGTTAGAAGGATTGCTGGAGACGTGTTGAGCGAGGAGCAGATCAAGGAGTGCCAAGAGCTGGGTGTTCTTGTGGATAGGGATGACCAGGGCGTTCTGCTTCAAATTTTCACTAAGCCAGTGGGCGACCGCCCTACATTCTTCCTTGAGATGATTCAAAGAATCGGCTGCATGGAGAAGGATGAGGTTGGACAGGAGTACCAAAAGGGCGGATGCGGTGGCTTCGGAAAGGGTAACTGGAGCGAGTTGTTCAAGTCAATCGAGGACTACGAGAAGAGCCTCGAGGTGAAGCAGTCAGTGGTTGCCCAAAAGTCCTGA
modifications: AsHPPDm-F415W-02 Nucleotide Sequence
notes: vector DBN11791
B2: AsHPPDm-F372A-F415W-02: nucleotide sequence encoding Avena sativa HPPD with F372A+F415W; vector DBN11792 (nucleic acid)
DNA: ATGCCACCTACTCCAGCTACAGCTACTGGTGCTGCTGCTGCTGCCGTTACTCCTGAGCACGCTGCCAGGTCATTCCCCAGGGTGGTTCGCGTGAACCCCAGATCTGATAGGTTCCCAGTTCTGAGCTTCCACCATGTTGAGCTGTGGTGCGCTGATGCTGCTTCTGCTGCTGGCAGGTTCTCTTTCGCTCTTGGTGCTCCACTCGCTGCTAGATCTGATCTGTCTACAGGAAATAGCGCTCATGCCTCACTCCTGCTTCGCTCAGGTGCTTTGGCCTTCCTCTTCACCGCTCCATATGCTCCCCCACCTCAGGAGGCTGCTACTGCTGCTGCTACAGCCTCCATTCCAAGCTTCTCAGCTGATGCCGCTAGAACCTTCGCTGCTGCTCATGGACTTGCCGTGAGGTCTGTTGGTGTTCGCGTGGCTGATGCTGCTGAGGCTTTCAGAGTTTCCGTTGCCGGCGGAGCTAGGCCAGCTTTCGCTCCTGCTGATTTGGGACATGGTTTCGGCCTGGCTGAGGTTGAGCTTTACGGTGACGTGGTTCTCCGCTTCGTGTCTTACCCAGATGAGACTGACCTGCCTTTCCTTCCCGGCTTCGAGAGAGTTTCCTCTCCTGGTGCCGTGGATTACGGCCTGACAAGGTTCGACCACGTGGTTGGAAACGTTCCCGAGATGGCTCCAGTGATCGATTACATGAAGGGCTTCCTTGGATTCCATGAGTTCGCCGAGTTCACTGCTGAGGACGTGGGAACCACTGAGTCCGGTTTGAACTCTGTGGTTCTCGCCAACAATTCTGAGGCTGTTTTGCTCCCTCTGAATGAGCCTGTGCATGGAACCAAGAGGAGAAGCCAGATTCAAACTTACCTGGAGTACCACGGTGGCCCTGGAGTTCAGCATATCGCCCTTGCTTCTAATGATGTGTTGCGCACACTCAGAGAGATGCGCGCCAGAACCCCCATGGGAGGTTTCGAGTTCATGGCCCCACCACAGGCTAAGTACTACGAGGGCGTTAGAAGGATTGCTGGAGACGTGTTGAGCGAGGAGCAGATCAAGGAGTGCCAAGAGCTGGGTGTTCTTGTGGATAGGGATGACCAGGGCGTTCTGCTTCAAATTGCCACTAAGCCAGTGGGCGACCGCCCTACATTCTTCCTTGAGATGATTCAAAGAATCGGCTGCATGGAGAAGGATGAGGTTGGACAGGAGTACCAAAAGGGCGGATGCGGTGGCTTCGGAAAGGGTAACTGGAGCGAGTTGTTCAAGTCAATCGAGGACTACGAGAAGAGCCTCGAGGTGAAGCAGTCAGTGGTTGCCCAAAAGTCCTGA
modifications: AsHPPDm-F372A-F415W-02 Nucleotide Sequence
notes: vector DBN11792

Key:
[1] = test system: Arabidopsis thaliana T1 plants; assay: Mesotrione tolerance of transgenic Arabidopsis thaliana T1 plants (spray, bleached leaf area grade, damage score); assay type: in vivo; design: Scores: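 damage score 0-100 computed as Σ(N×S)/(T×M)×100 over grades 0-3 with higher meaning more damage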; conditions: for Classification and statistics of the grade of pesticide damage Grade 0 / Classification and statistics of the grade of pesticide damage Grade 1 / Classification and statistics of the grade of pesticide damage Grade 2 / Classification and statistics of the grade of pesticide damage Grade 3: number of plants in grade
How it was run: (§1)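 Read-out: per-plant damage grade 0–3 from proportion of bleached leaf area at 7 DAT (1 <50%, 2 >50%, 3 100%). Plants were T1 transformants, glufosinate-selected, plus wild-type CK, sprayed 18 days post-sowing. Rates: topramezone 25–200, isoxaflutole 35–280, mesotrione 52.5–420 g ai/ha.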

[2] = test system: Arabidopsis thaliana T1 plants; assay: Isoxaflutole tolerance of transgenic Arabidopsis thaliana T1 plants (spray, bleached leaf area grade, damage score); assay type: in vivo; conditions: for Classification and statistics of the grade of pesticide damage Grade 0 / Classification and statistics of the grade of pesticide damage Grade 1 / Classification and statistics of the grade of pesticide damage Grade 2 / Classification and statistics of the grade of pesticide damage Grade 3: number of plants in grade;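 for Scores: Weighted damage index from 0 to 100 where higher means more damage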
How it was run: as §1

| Molecule | Resistance evaluation ([1]; mesotrione 210 g ai/ha) | Scores ([1]; mesotrione 210 g ai/ha) | Classification and statistics of the grade of pesticide damage Grade 0 ([1]; mesotrione 210 g ai/ha) | Classification and statistics of the grade of pesticide damage Grade 1 ([1]; mesotrione 210 g ai/ha) | Classification and statistics of the grade of pesticide damage Grade 2 ([1]; mesotrione 210 g ai/ha) | Classification and statistics of the grade of pesticide damage Grade 3 ([1]; mesotrione 210 g ai/ha) | Resistance evaluation ([1]; mesotrione 420 g ai/ha) | Scores ([1]; mesotrione 420 g ai/ha) | Classification and statistics of the grade of pesticide damage Grade 0 ([1]; mesotrione 420 g ai/ha) | Classification and statistics of the grade of pesticide damage Grade 1 ([1]; mesotrione 420 g ai/ha) | Classification and statistics of the grade of pesticide damage Grade 2 ([1]; mesotrione 420 g ai/ha) | Classification and statistics of the grade of pesticide damage Grade 3 ([1]; mesotrione 420 g ai/ha) | Resistance evaluation ([2]; isoxaflutole 140 g ai/ha) | Scores ([2]; isoxaflutole 140 g ai/ha) | Classification and statistics of the grade of pesticide damage Grade 0 ([2]; isoxaflutole 140 g ai/ha) | Classification and statistics of the grade of pesticide damage Grade 1 ([2]; isoxaflutole 140 g ai/ha) | Classification and statistics of the grade of pesticide damage Grade 2 ([2]; isoxaflutole 140 g ai/ha) | Classification and statistics of the grade of pesticide damage Grade 3 ([2]; isoxaflutole 140 g ai/ha) | Resistance evaluation ([2]; isoxaflutole 280 g ai/ha) | Scores ([2]; isoxaflutole 280 g ai/ha) | further results |
| --- | --- | --- | --- | --- | --- | --- | --- | --- | --- | --- | --- | --- | --- | --- | --- | --- | --- | --- | --- | --- | --- |
| B1 | Non-resistant | 81 | 0 | 0 | 9 | 7 | Non-resistant | 100 | 0 | 0 | 0 | 16 | Moderately | 31 | 5 | 7 | 4 | 0 | Poorly | 63 | Classification and statistics of the grade of pesticide damage Grade 0 ([2]; isoxaflutole 280 g ai/ha): 0; Classification and statistics of the grade of pesticide damage Grade 1 ([2]; isoxaflutole 280 g ai/ha): 2; Classification and statistics of the grade of pesticide damage Grade 2 ([2]; isoxaflutole 280 g ai/ha): 14; Classification and statistics of the grade of pesticide damage Grade 3 ([2]; isoxaflutole 280 g ai/ha): 0 |
| B2 | Moderately | 31 | 6 | 6 | 3 | 1 | Poorly resistant | 50 | 0 | 8 | 8 | 0 | Moderately | 31 | 5 | 7 | 4 | 0 | Poorly | 63 | Classification and statistics of the grade of pesticide damage Grade 0 ([2]; isoxaflutole 280 g ai/ha): 0; Classification and statistics of the grade of pesticide damage Grade 1 ([2]; isoxaflutole 280 g ai/ha): 3; Classification and statistics of the grade of pesticide damage Grade 2 ([2]; isoxaflutole 280 g ai/ha): 12; Classification and statistics of the grade of pesticide damage Grade 3 ([2]; isoxaflutole 280 g ai/ha): 1 |

Source: patent publication US20250043302A1, “MUTATED HYDROXYPHENYLPYRUVATE DIOXYGENASE POLYPEPTIDE, AND CODING GENE AND USE THEREOF” (BEIJING DABEINONG BIOTECHNOLOGY CO., LTD., priority 2021, published 2025)
